According to US20250074943A1 (Amgen, published 2025):
Where “and” joins values, the source holds several entries; their conditions need not be identical. Equal values may be shown once. Bridge positions count the residues as written; N and C are the ends. Ends that are not written are not given here.

T1: recombinant DLL3 ectodomain (rhDLL3-Fc) (human, UniProt Q9NYJ7 27-492, biotinylated (NHS-LC-LC-biotin) in the BLI and SPR assays)
T1 construct: also called rDLL3-Fc; recombinant human DLL3 (rDLL3); not shown: Fc part
T1 sequence: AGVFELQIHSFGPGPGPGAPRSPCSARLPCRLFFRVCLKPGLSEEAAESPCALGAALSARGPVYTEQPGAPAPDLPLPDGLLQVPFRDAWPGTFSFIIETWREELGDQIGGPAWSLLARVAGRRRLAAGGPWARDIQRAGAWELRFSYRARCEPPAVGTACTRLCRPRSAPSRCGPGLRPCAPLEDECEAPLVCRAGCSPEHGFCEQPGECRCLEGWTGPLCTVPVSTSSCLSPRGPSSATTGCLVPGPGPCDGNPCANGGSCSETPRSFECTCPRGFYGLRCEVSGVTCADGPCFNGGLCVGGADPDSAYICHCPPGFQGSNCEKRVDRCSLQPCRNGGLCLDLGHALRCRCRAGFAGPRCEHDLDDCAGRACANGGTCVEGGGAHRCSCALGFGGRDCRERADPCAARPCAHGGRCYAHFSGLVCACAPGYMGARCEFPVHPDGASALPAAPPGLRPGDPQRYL

T2: human DLL3 expressed on the surface of cells (human, UniProt Q9NYJ7 27-618)
T2 construct: Stably transfected CHO or HEK293 cells; also called huDLL3; hDLL3
T2 sequence: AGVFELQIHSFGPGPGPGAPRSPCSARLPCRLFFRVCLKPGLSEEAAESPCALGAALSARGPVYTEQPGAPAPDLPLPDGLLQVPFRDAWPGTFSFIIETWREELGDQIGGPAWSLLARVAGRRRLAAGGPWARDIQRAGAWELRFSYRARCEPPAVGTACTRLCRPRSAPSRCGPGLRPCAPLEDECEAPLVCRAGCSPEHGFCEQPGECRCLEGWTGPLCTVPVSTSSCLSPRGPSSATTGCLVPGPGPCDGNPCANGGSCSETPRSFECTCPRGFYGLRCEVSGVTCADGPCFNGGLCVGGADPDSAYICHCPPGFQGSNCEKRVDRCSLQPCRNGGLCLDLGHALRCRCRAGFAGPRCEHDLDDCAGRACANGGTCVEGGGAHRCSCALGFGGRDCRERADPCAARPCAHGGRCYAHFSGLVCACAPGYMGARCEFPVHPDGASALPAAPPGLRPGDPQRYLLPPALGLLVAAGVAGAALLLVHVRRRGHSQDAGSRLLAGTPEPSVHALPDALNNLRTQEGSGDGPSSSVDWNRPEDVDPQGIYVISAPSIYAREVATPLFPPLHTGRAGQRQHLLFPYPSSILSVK


What was measured:
[1] = molecular target: T1, recombinant DLL3 ectodomain (rhDLL3-Fc); test: BLI (Octet), biotinylated rhDLL3-Fc on streptavidin sensors
Description: Binding kinetic assays were performed using Bio-layer interferometry (BLI) technology. The recombinant DLL3 ectodomain (rhDLL3-Fc) was biotinylated using EZ-Link Sulfo-NHS-LC-LC-Biotin Kit according to the manufacturer's protocol (Pierce by Thermo Fisher Scientific). The recombinant protein was incubated with an excess of NHS-LC-LC Biotin ester, in a molar ratio of 1:3 (protein: biotin), at 25° C. for 90 min. The un-reacted biotin ester was removed by subsequent buffer exchange on 0.5 ml Zeba spin desalting columns 7K MWCO (Pierce by Thermo Fisher Scientific).

[2] = molecular target: T2, human DLL3 expressed on the surface of …; test: phage cell ELISA/FACS on DLL3-expressing cells;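 further: phages incubated 1 h at room temperature with cells overexpressing human DLL3, read by flow cytometry fluorescence, then fixed-cell ELISA with anti-M13-HRP at A370 nm, parental cells alongside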
Description: The pools of phages were also screened for their binding to cells overexpressing human DLL3 on their surface. Cells were detached, counted and re-suspended at 1.8×10⁶ cell/ml in FACS buffer containing 2% FBS. Pre-blocked phages were then added to the cells and incubated for 1 hr at room temperature. […] Cells were then washed and re-suspended into FACS buffer. Fluorescence was acquired using a flow cytometer (FACS Canto/Becton Dickinson).
Phage clones with signal higher than four-fold above the background were further tested for their binding to DLL3 on the surface of cells expressing DLL3 by cell ELISA. Briefly, parental cells and cells overexpressing DLL3 were plated on 96 well plate the day before the assay. The cells were then fixed and washed before the addition of pre-blocked phages as previously described. The cells were then washed and anti-M13-HRP was added. The signal was measured using a Multiskan Ascent (Thermo) ELISA reader at A370 nm.

[3] = molecular target: T1, recombinant DLL3 ectodomain (rhDLL3-Fc); test: phage ELISA on rDLL3-Fc
Description: The pools of phages obtained after each round of selection were tested by Phage-ELISA for their binding to rDLL3-Fc and counter-screened on hIgG-Fc. Briefly, proteins were immobilized on NUNC-Maxisorp ELISA plates. Then the plates were washed and blocked. 100 μl of pre-blocked phages were added to the blocked plate and incubated for 1 hr at room temperature. Anti-M13 HRP conjugated mAb were added and the plates were read on a Multiskan Ascent (Thermo) Elisa reader at A370 nm after the addition of TMB (Sigma).

Row | Kd [1] | RT (residence time) [1] | binding result [2] | binding result [3] | Binder
1 | 181 nM | 20 s |  |  | WDCWGNTDDWTCTW-NH2 (disulfide 3-12 (inferred), PepSP1161 without AETVEF) [PepSP1269]
2 |  |  | binds | binds | AETVEFRGCTGNVYDWTCVW (not shown: M13 pIII coat protein) [SEQ ID NO 51]
3 |  |  | binds | binds | AETVEFWSCKWWGGAADEYTYSCGW (not shown: M13 pIII coat protein) [SEQ ID NO 44]
4 | 166 nM | 43 s |  |  | AETVEFYGCSVNADGWTCSW-NH2 (disulfide 9-18 (inferred)) [PepSP1170]
5 | 236 nM | 52 s |  |  | AETVEFYGCWGNYNDYTCSW-NH2 (disulfide 9-18 (inferred)) [PepSP1177]
6 | 75.8 nM | 96.6 s |  |  | AETVEFWSCKWWGGAADEYTYSCGW-NH2 (disulfide 9-23 (inferred)) [PepSP1182]
7 | 643 nM | 31 s |  |  | AETVEFYGCSMDWRGVTCAW-NH2 (disulfide 9-18 (inferred)) [PepSP1158]
8 | 125 nM | 167 s |  |  | AETVEFWTCYWTEGVSGCRW-NH2 (disulfide 9-18 (inferred)) [PepSP1151]
9 |  |  | binds | binds | AETVEFWDCWGNTDDWTCTW (not shown: M13 pIII coat protein) [SEQ ID NO 41]
10 |  |  | binds | binds | AETVEYWRCDWYEETVACGT (not shown: M13 pIII coat protein) [SEQ ID NO 47]
11 | 207 nM | 67 s |  |  | AETVEFYGCQYYGWDYTCAW-NH2 (disulfide 9-18 (inferred)) [PepSP1176]
12 | 7500 nM | 1.36 s |  |  | WGCTGTWGNETCWW-NH2 (disulfide 3-12 (inferred), PepSP1146 without AETVEF) [PepSP1213]
13 | 145 nM | 48 s |  |  | AETVEFDYCYGDVEEWTCVY-NH2 (disulfide 9-18 (inferred)) [PepSP1166]
14 |  |  | binds | binds | AETVEFDYCYGDVEEWTCVY (not shown: M13 pIII coat protein) [SEQ ID NO 55]
15 |  |  | binds | binds | AETVEFWTCYWTEGVSGCRW (not shown: M13 pIII coat protein) [SEQ ID NO 46]
16 |  |  | binds | binds | AETVEFYGCSMDWRGVTCAW (not shown: M13 pIII coat protein) [SEQ ID NO 49]
17 | 263 nM | 66 s |  |  | AETVEFYGCRGGDGEWTCVW-NH2 (disulfide 9-18 (inferred)) [PepSP1165]
18 | 123 nM | 89 s |  |  | AETVEFWSCHYSYWTVSCGT-NH2 (disulfide 9-18 (inferred)) [PepSP1157]

Row | Kd [1] | RT (residence time) [1] | binding result [2] | binding result [3] | Binder
19 | 106 nM | 101 s |  |  | AETVEFYGCYGEQEQWTCLW-NH2 (disulfide 9-18 (inferred)) [PepSP1173]
20 |  |  | binds | binds | AETVEFYGCTGDAYEYTCTW (not shown: M13 pIII coat protein) [SEQ ID NO 45]
21 | 494 nM | 47 s |  |  | AETVEFRGCTGNVYDWTCVW-NH2 (disulfide 9-18 (inferred)) [PepSP1160]
22 | 125 nM | 125 s |  |  | AETVEFDGCKGDWYEWTCWW-NH2 (disulfide 9-18 (inferred)) [PepSP1164]
23 |  |  | binds | binds | AETVEFWSCHYSYWTVSCGT (not shown: M13 pIII coat protein) [SEQ ID NO 48]
24 |  |  | binds | binds | AETVEFDGCKGDWYEWTCWW (not shown: M13 pIII coat protein) [SEQ ID NO 53]
25 | 159 nM | 51 s |  |  | AETVEFWTCHGNADEWTCSW-NH2 (disulfide 9-18 (inferred)) [PepSP1162]
26 |  |  | binds | binds | AETVEFYGCYGDRNDYTCTW (not shown: M13 pIII coat protein) [SEQ ID NO 42]
27 | 568 nM | 44 s |  |  | AETVEFYGCKWDWKGWTCAW-NH2 (disulfide 9-18 (inferred)) [PepSP1168]
28 | 155 nM | 177 s |  |  | AETVEYWRCDWYEETVACGT-NH2 (disulfide 9-18 (inferred)) [PepSP1155]
29 | 59 nM | 65.6 s |  |  | AETVEFYGCTGDAYEYTCTW-NH2 (disulfide 9-18 (inferred)) [PepSP1147]
30 | 399 nM | 47 s |  |  | AETVEFYGCETYSGGWTCLW-NH2 (disulfide 9-18 (inferred)) [PepSP1167]
31 | 69 nM and 68.7 nM | 167 s |  |  | AETVEFLGCHGDNSEWTCVW-NH2 (disulfide 9-18 (inferred)) [PepSP1163]
32 | 900 nM | 6 s |  |  | AETVEFDYCLWAPDAWGCQN-NH2 (disulfide 9-18) [PepSP1159]
33 |  |  | binds | binds | AETVEFYGCRGGDGEWTCVW (not shown: M13 pIII coat protein) [SEQ ID NO 54]
34 |  |  | binds | binds | AETVEFLGCHGDNSEWTCVW (not shown: M13 pIII coat protein) [SEQ ID NO 43]
35 | 147 nM | 75.9 s |  |  | AETVEFYGCYGDRNDYTCTW-NH2 (disulfide 9-18 (inferred)) [PepSP1178]
36 |  |  | binds | binds | AETVEFWTCHGNADEWTCSW (not shown: M13 pIII coat protein) [SEQ ID NO 52]
